Numbering of substitutions follows the chain as printed. Names may count otherwise.
B1: anti-IL-6 antibody, heavy chain S35D, G66D / light chain M32L, M50D, N52S, M88Q (antibody, human IgG1, V domains shown)
VH: EVQLVESGGGLVQPGGSLRLSCAASGFTFSPFAMDWVRQAPGKGLEWVAKISPGGSWTYYSDTVTDRFTFSLDTSKSTAYLQMNSLRAEDTAVYYCARQLWGYYALDIWGQGTLVTVSS
VL: DIQLTQSPSSLSASVGDRVTITCSASISVSYLYWYQQKPGKAPKLLIYDDSSLASGVPSRFSGSGSGTDFTLTISSLQPEDFATYYCQQWSGYPYTFGQGTKVEIK
notes: Human IgG1
B2: anti-IL-6 antibody, heavy chain T63D, G66D / light chain M32L, M50D, N52S, M88Q (antibody, human IgG1, V domains shown)
VH: B1 VH with D35S, T63D
VL: B1 VL
notes: Human IgG1
B3: anti-IL-6 antibody, heavy chain T63H, G66D / light chain M32L, M50D, N52S, M88Q (antibody, human IgG1, V domains shown)
VH: B1 VH with D35S, T63H
VL: B1 VL
notes: Human IgG1
B4: anti-IL-6 antibody, heavy chain I51F, G66D / light chain M32L, M50D, N52S, M88Q (antibody, human IgG1, V domains shown)
VH: B1 VH with D35S, I51F
VL: B1 VL
notes: Human IgG1
B5: anti-IL-6 antibody, heavy chain I51H, G66D / light chain M32L, M50D, N52S, M88Q (antibody, human IgG1, V domains shown)
VH: B1 VH with D35S, I51H
VL: B1 VL
notes: Human IgG1
B6: anti-IL-6 antibody, heavy chain I51W, G66D / light chain M32L, M50D, N52S, M88Q (antibody, human IgG1, V domains shown)
VH: B1 VH with D35S, I51W
VL: B1 VL
notes: Human IgG1
B7: anti-IL-6 antibody, heavy chain S35T, G66D / light chain M32L, M50D, N52S, M88Q (antibody, human IgG1, V domains shown)
VH: B1 VH with D35T
VL: B1 VL
notes: Human IgG1
B8: anti-IL-6 antibody, heavy chain S35Q, G66D / light chain M32L, M50D, N52S, M88Q (antibody, human IgG1, V domains shown)
VH: B1 VH with D35Q
VL: B1 VL
notes: Human IgG1
B9: anti-IL-6 antibody, heavy chain S35Y, G66D / light chain M32L, M50D, N52S, M88Q (antibody, human IgG1, V domains shown)
VH: B1 VH with D35Y
VL: B1 VL
notes: Human IgG1
B10: anti-IL-6 antibody, heavy chain I51Y, G66D / light chain M32L, M50D, N52S, M88Q (antibody, human IgG1, V domains shown)
VH: B1 VH with D35S, I51Y
VL: B1 VL
notes: Human IgG1
B11: anti-IL-6 antibody, heavy chain S35W, G66D / light chain M32L, M50D, N52S, M88Q (antibody, human IgG1, V domains shown)
VH: B1 VH with D35W
VL: B1 VL
notes: Human IgG1
B12: anti-IL-6 antibody, heavy chain I51D, G66D / light chain M32L, M50D, N52S, M88Q (antibody, human IgG1, V domains shown)
VH: B1 VH with D35S, I51D
VL: B1 VL
notes: Human IgG1
B13: anti-IL-6 antibody, heavy chain I51L, G66D / light chain M32L, M50D, N52S, M88Q (antibody, human IgG1, V domains shown)
VH: B1 VH with D35S, I51L
VL: B1 VL
notes: Human IgG1
B14: anti-IL-6 antibody, heavy chain I51G, G66D / light chain M32L, M50D, N52S, M88Q (antibody, human IgG1, V domains shown)
VH: B1 VH with D35S, I51G
VL: B1 VL
notes: Human IgG1
B15: anti-IL-6 antibody, heavy chain S35P, G66D / light chain M32L, M50D, N52S, M88Q (antibody, human IgG1, V domains shown)
VH: B1 VH with D35P
VL: B1 VL
notes: Human IgG1
B16: anti-IL-6 antibody, heavy chain S35L, G66D / light chain M32L, M50D, N52S, M88Q (antibody, human IgG1, V domains shown)
VH: B1 VH with D35L
VL: B1 VL
notes: Human IgG1
B17: anti-IL-6 antibody, heavy chain S35G, G66D / light chain M32L, M50D, N52S, M88Q (antibody, human IgG1, V domains shown)
VH: B1 VH with D35G
VL: B1 VL
notes: Human IgG1
B18: anti-IL-6 antibody, heavy chain S35V, G66D / light chain M32L, M50D, N52S, M88Q (antibody, human IgG1, V domains shown)
VH: B1 VH with D35V
VL: B1 VL
notes: Human IgG1
B19: anti-IL-6 antibody, heavy chain I51E, G66D / light chain M32L, M50D, N52S, M88Q (antibody, human IgG1, V domains shown)
VH: B1 VH with D35S, I51E
VL: B1 VL
notes: Human IgG1
B20: anti-IL-6 antibody, heavy chain S35K, G66D / light chain M32L, M50D, N52S, M88Q (antibody, human IgG1, V domains shown)
VH: B1 VH with D35K
VL: B1 VL
notes: Human IgG1
B21: anti-IL-6 antibody, heavy chain I51T, G66D / light chain M32L, M50D, N52S, M88Q (antibody, human IgG1, V domains shown)
VH: B1 VH with D35S, I51T
VL: B1 VL
notes: Human IgG1
B22: anti-IL-6 antibody, heavy chain I51V, G66D / light chain M32L, M50D, N52S, M88Q (antibody, human IgG1, V domains shown)
VH: B1 VH with D35S, I51V
VL: B1 VL
notes: Human IgG1
B23: anti-IL-6 antibody, heavy chain S35E, G66D / light chain M32L, M50D, N52S, M88Q (antibody, human IgG1, V domains shown)
VH: B1 VH with D35E
VL: B1 VL
notes: Human IgG1
B24: anti-IL-6 antibody, heavy chain I51R, G66D / light chain M32L, M50D, N52S, M88Q (antibody, human IgG1, V domains shown)
VH: B1 VH with D35S, I51R
VL: B1 VL
notes: Human IgG1
B25: anti-IL-6 antibody, heavy chain I51Q, G66D / light chain M32L, M50D, N52S, M88Q (antibody, human IgG1, V domains shown)
VH: B1 VH with D35S, I51Q
VL: B1 VL
notes: Human IgG1
B26: anti-IL-6 antibody, heavy chain I51K, G66D / light chain M32L, M50D, N52S, M88Q (antibody, human IgG1, V domains shown)
VH: B1 VH with D35S, I51K
VL: B1 VL
notes: Human IgG1
B27: anti-IL-6 antibody, heavy chain T63G, G66D / light chain M32L, M50D, N52S, M88Q (antibody, human IgG1, V domains shown)
VH: B1 VH with D35S, T63G
VL: B1 VL
notes: Human IgG1
B28: anti-IL-6 antibody, heavy chain I51A, G66D / light chain M32L, M50D, N52S, M88Q (antibody, human IgG1, V domains shown)
VH: B1 VH with D35S, I51A
VL: B1 VL
notes: Human IgG1
B29: anti-IL-6 antibody, heavy chain I51S, G66D / light chain M32L, M50D, N52S, M88Q (antibody, human IgG1, V domains shown)
VH: B1 VH with D35S, I51S
VL: B1 VL
notes: Human IgG1
B30: anti-IL-6 antibody, heavy chain T63F, G66D / light chain M32L, M50D, N52S, M88Q (antibody, human IgG1, V domains shown)
VH: B1 VH with D35S, T63F
VL: B1 VL
notes: Human IgG1
B31: anti-IL-6 antibody, heavy chain S35F, G66D / light chain M32L, M50D, N52S, M88Q (antibody, human IgG1, V domains shown)
VH: B1 VH with D35F
VL: B1 VL
notes: Human IgG1
B32: anti-IL-6 antibody, heavy chain T63A, G66D / light chain M32L, M50D, N52S, M88Q (antibody, human IgG1, V domains shown)
VH: B1 VH with D35S, T63A
VL: B1 VL
notes: Human IgG1
B33: anti-IL-6 antibody, heavy chain S35I, G66D / light chain M32L, M50D, N52S, M88Q (antibody, human IgG1, V domains shown)
VH: B1 VH with D35I
VL: B1 VL
notes: Human IgG1
B34: anti-IL-6 antibody, heavy chain S35A, G66D / light chain M32L, M50D, N52S, M88Q (antibody, human IgG1, V domains shown)
VH: B1 VH with D35A
VL: B1 VL
notes: Human IgG1
B35: anti-IL-6 antibody, heavy chain T65V, G66D / light chain M32L, M50D, N52S, M88Q (antibody, IgG1, V domains shown)
VH: B1 VH with D35S, T65V
VL: B1 VL
notes: Full IgG1 (Expi293); VL = variant III
B36: anti-IL-6 antibody, heavy chain T65Y, G66D / light chain M32L, M50D, N52S, M88Q (antibody, IgG1, V domains shown)
VH: B1 VH with D35S, T65Y
VL: B1 VL
notes: as for B35
B37: anti-IL-6 antibody, heavy chain T65W, G66D / light chain M32L, M50D, N52S, M88Q (antibody, IgG1, V domains shown)
VH: B1 VH with D35S, T65W
VL: B1 VL
notes: as for B35

Molecular target: human IL-6 (human, UniProt P05231 30-212)
Assay: SPR (Biacore), supernatant antibody on Protein A chip, IL-6 flowed, 37 C
Experimental: Antibodies were captured on a Protein A chip (GE) by injecting 1:20 cell supernatant dilutions at 10 μL/min for 60 seconds. […] The sensor chip was regenerated by a 60 seconds injection of 10 mM Glycine pH 1.7 at the flow rate of 50 μL/min. […] For this setup, 1 μg/mL of purified antibody was injected over a Protein A chip at 10 μL/min for 25 seconds. […] The sensor chip was regenerated by a 60 seconds injection of 10 mM Glycine pH 1.7 at flow rate of 50 μL/min. Data analysis for supernatant and purified samples were performed using BIAevaluation software (GE). All sensorgrams were double reference subtracted and fit using a 1:1 Langmuir binding model.
Target sequence in this assay (P05231 30-212 limits assumed): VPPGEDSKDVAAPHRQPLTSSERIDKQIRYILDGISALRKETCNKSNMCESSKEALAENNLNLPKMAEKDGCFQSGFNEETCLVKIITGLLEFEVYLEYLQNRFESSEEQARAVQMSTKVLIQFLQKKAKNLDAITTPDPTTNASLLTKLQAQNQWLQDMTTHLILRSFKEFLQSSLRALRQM

Row | Binder | Kd | koff | kon
1 | B1 | 753 pM | 0.00177 s⁻¹ | 2.35e+06 M⁻¹ s⁻¹
2 | B2 | 249 pM | 0.000413 s⁻¹ | 1.66e+06 M⁻¹ s⁻¹
3 | B3 | 280 pM | 0.000481 s⁻¹ | 1.72e+06 M⁻¹ s⁻¹
4 | B4 | 4450 pM | 0.00611 s⁻¹ | 1.37e+06 M⁻¹ s⁻¹
5 | B5 | 500 pM | 0.00104 s⁻¹ | 2.07e+06 M⁻¹ s⁻¹
6 | B6 | 4840 pM | 0.00383 s⁻¹ | 791000 M⁻¹ s⁻¹
7 | B7 | 498 pM | 0.000711 s⁻¹ | 1.43e+06 M⁻¹ s⁻¹
8 | B8 | 300 pM | 0.000626 s⁻¹ | 2.09e+06 M⁻¹ s⁻¹
9 | B9 | 3430 pM | 0.00404 s⁻¹ | 1.18e+06 M⁻¹ s⁻¹
10 | B10 | 4040 pM | 0.0247 s⁻¹ | 6.1e+06 M⁻¹ s⁻¹
11 | B11 | 34600 pM | 0.00591 s⁻¹ | 171000 M⁻¹ s⁻¹
12 | B12 | 9580 pM | 0.00799 s⁻¹ | 834000 M⁻¹ s⁻¹
13 | B13 | 980 pM | 0.00161 s⁻¹ | 1.64e+06 M⁻¹ s⁻¹
14 | B14 | 652 pM | 0.000912 s⁻¹ | 1.4e+06 M⁻¹ s⁻¹
15 | B15 | 27100 pM | 0.00548 s⁻¹ | 202000 M⁻¹ s⁻¹
16 | B16 | 2590 pM | 0.00243 s⁻¹ | 942000 M⁻¹ s⁻¹
17 | B17 | 609 pM | 0.000781 s⁻¹ | 1.28e+06 M⁻¹ s⁻¹

Row | Binder | Kd | koff | kon
18 | B18 | 1330 pM | 0.00137 s⁻¹ | 1.03e+06 M⁻¹ s⁻¹
19 | B19 | 2140 pM | 0.00196 s⁻¹ | 914000 M⁻¹ s⁻¹
20 | B20 | 2640 pM | 0.00346 s⁻¹ | 1.31e+06 M⁻¹ s⁻¹
21 | B21 | 233 pM | 0.000478 s⁻¹ | 2.05e+06 M⁻¹ s⁻¹
22 | B22 | 1110 pM | 0.00195 s⁻¹ | 1.76e+06 M⁻¹ s⁻¹
23 | B23 | 867 pM | 0.00189 s⁻¹ | 2.18e+06 M⁻¹ s⁻¹
24 | B24 | 35.7 pM | 5.8e-05 s⁻¹ | 1.63e+06 M⁻¹ s⁻¹
25 | B25 | 575 pM | 0.00113 s⁻¹ | 1.96e+06 M⁻¹ s⁻¹
26 | B26 | 349 pM | 0.000601 s⁻¹ | 1.72e+06 M⁻¹ s⁻¹
27 | B27 | 261 pM | 0.00045 s⁻¹ | 1.73e+06 M⁻¹ s⁻¹
28 | B28 | 559 pM | 0.000899 s⁻¹ | 1.61e+06 M⁻¹ s⁻¹
29 | B29 | 217 pM | 0.000401 s⁻¹ | 1.85e+06 M⁻¹ s⁻¹
30 | B30 | 274 pM | 0.000459 s⁻¹ | 1.67e+06 M⁻¹ s⁻¹
31 | B31 | 3170 pM | 0.00484 s⁻¹ | 1.53e+06 M⁻¹ s⁻¹
32 | B32 | 268 pM | 0.000458 s⁻¹ | 1.7e+06 M⁻¹ s⁻¹
33 | B33 | 1620 pM | 0.00147 s⁻¹ | 904000 M⁻¹ s⁻¹
34 | B34 | 657 pM | 0.00126 s⁻¹ | 1.93e+06 M⁻¹ s⁻¹

Molecular target: T1, human IL-6 (human, UniProt P05231 30-212)
T1 construct: IL-6 flowed over captured antibodies
Assay: SPR Biacore, supernatant Ab on Protein A chip, 37 C
T1 sequence (P05231 30-212 limits assumed): as above

Row | Binder | Kd | koff | kon
35 | B35 | 281 pM | 0.000551 s⁻¹ | 1.96e+06 M⁻¹ s⁻¹
36 | B36 | 237 pM | 0.000367 s⁻¹ | 1.55e+06 M⁻¹ s⁻¹
37 | B37 | 322 pM | 0.000384 s⁻¹ | 1.19e+06 M⁻¹ s⁻¹

From patent publication US20240209076A1 (KODIAK SCIENCES, published 2024)
